{"source": "paper PMC5716189", "about": "(Nucleic Acids Research, 2017)", "details_in_all_cases": "both partners purified", "key": {"[1]": {"target": "T1, APLF FHA domain (forkhead-associated domain of aprataxin and PNKP-like factor) (human, UniProt Q8IW19 1-105)", "T1 sequence": "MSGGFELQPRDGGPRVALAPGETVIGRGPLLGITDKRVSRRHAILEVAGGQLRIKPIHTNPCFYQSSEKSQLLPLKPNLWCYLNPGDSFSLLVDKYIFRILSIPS", "assay": "fluorescence polarisation; pH 6.5; apparent dissociation constants; FITC-Gly-Gly-labelled peptide with APLF FHA; 25 mM HEPES, 25 mM MES, 150 mM NaCl, 1 mM EDTA, 2 mM DTT, 0.05% Tween 20; room temperature; single-site fit"}, "[2]": {"target": "T1, APLF FHA domain (forkhead-associated …)", "assay": "fluorescence polarisation; pH 7.0; apparent dissociation constants; FITC-Gly-Gly-labelled peptide with APLF FHA; 25 mM HEPES, 25 mM MES, 150 mM NaCl, 1 mM EDTA, 2 mM DTT, 0.05% Tween 20; room temperature; single-site fit"}, "[3]": {"target": "T1, APLF FHA domain (forkhead-associated …)", "assay": "fluorescence polarisation; pH 7.4; apparent dissociation constants; FITC-Gly-Gly-labelled peptide with APLF FHA; 25 mM HEPES, 25 mM MES, 150 mM NaCl, 1 mM EDTA, 2 mM DTT, 0.05% Tween 20; room temperature; single-site fit"}, "[4]": {"target": "T1, APLF FHA domain (forkhead-associated …)", "assay": "fluorescence polarisation; pH 6.0; apparent dissociation constants; FITC-Gly-Gly-labelled peptide with APLF FHA; 25 mM HEPES, 25 mM MES, 150 mM NaCl, 1 mM EDTA, 2 mM DTT, 0.05% Tween 20; room temperature; single-site fit"}, "[5]": {"target": "T1, APLF FHA domain (forkhead-associated …)", "assay": "fluorescence polarisation; pH 5.5; apparent dissociation constants; FITC-Gly-Gly-labelled peptide with APLF FHA; 25 mM HEPES, 25 mM MES, 150 mM NaCl, 1 mM EDTA, 2 mM DTT, 0.05% Tween 20; room temperature; single-site fit"}, "[6]": {"target": "T1, APLF FHA domain (forkhead-associated …)", "assay": "NMR titration; 2D 1H,15N-HSQC of 0.1 mM U-[15N] APLF-FHA as a function of phosphopeptide concentration (0–800 μM); 25 mM HEPES, 25 mM MES, 150 mM NaCl, 1 mM EDTA, pH 7.4; 35°C; lineshape simulation (two-site exchange) for Kd and τB of the 18-residue peptide"}, "[7]": {"target": "T1, APLF FHA domain (forkhead-associated …)", "assay": "crystal structure; sitting drop vapor diffusion, 20°C; APLF FHA 9–10 mg/ml with peptide at a 1:1 peptide:protein ratio"}, "[8]": {"target": "T1, APLF FHA domain (forkhead-associated …)", "assay": "NMR titration; 2D 1H,15N-HSQC of 0.1 mM U-[15N] APLF-FHA as a function of phosphopeptide concentration (0–800 μM); 25 mM HEPES, 25 mM MES, 150 mM NaCl, 1 mM EDTA, pH 7.4; 35°C; lineshape simulation (two-site exchange) for Kd and τB of the 18-residue peptide", "remark": "listed apart in the source"}}, "note": "Square brackets hold non-standard residues; d marks the D form. Ends that are not written are not given here. * marks the point of attachment. FITC = O=C1OC2(c3ccc(O)cc3Oc3cc(O)ccc32)c2ccc(NC(=S)*)cc21; pT = C[C@@H](OP(=O)(O)O)[C@H](N)C(=O)O; pS = N[C@@H](COP(=O)(O)O)C(=O)O"}
{"binder": "{FITC}-GGQEENGEDPYAG[pS][pT]DENTDSEEHQE", "note": "[FITC-Gly-Gly-XRCC1_(pSpT-24) diphosphopeptide]", "values": [{"measurement": "Kd", "setting": "[1]", "value": "320 ± 90", "unit": "nM"}, {"measurement": "Kd", "setting": "[2]", "value": "200 ± 30", "unit": "nM"}, {"measurement": "Kd", "setting": "[3]", "value": "160 ± 20", "unit": "nM"}, {"measurement": "Kd", "setting": "[4]", "value": "3650 ± 910", "unit": "nM"}, {"measurement": "Kd", "setting": "[5]", "value": "6650 ± 2350", "unit": "nM"}]}
{"binder": "{FITC}-GGDPYAG[pS][pT]DENEDEEEHQE", "note": "[FITC-Gly-Gly-XRCC1_(pSpTEE-18) diphosphopeptide]", "values": [{"measurement": "Kd", "setting": "[3]", "value": "300 ± 70", "unit": "nM"}]}
{"binder": "PYAG[pS][pT]DEN", "note": "[XRCC1_(pSpT-9) diphosphopeptide]", "values": [{"measurement": "Kd", "setting": "[6]", "value": 80000, "unit": "nM"}]}
{"binder": "PYAGE[pT]DEN", "note": "[XRCC1_(EpT-9) monophosphopeptide]", "values": [{"measurement": "binding result", "setting": "[7]", "value": "binds"}]}
{"binder": "DPYAG[pS][pT]DENTDSEEHQE", "note": "[XRCC1_(pSpT-18) diphosphopeptide, unlabelled (NMR studies)]", "values": [{"measurement": "Kd", "setting": "[8]", "value": 4000, "unit": "nM"}]}
